This is an account of results in paper doi:10.1101/854158 (bioRxiv, 2019).

To fix the notation:
T1: FANCC (human, UniProt Q00597 1-558)
T1 sequence: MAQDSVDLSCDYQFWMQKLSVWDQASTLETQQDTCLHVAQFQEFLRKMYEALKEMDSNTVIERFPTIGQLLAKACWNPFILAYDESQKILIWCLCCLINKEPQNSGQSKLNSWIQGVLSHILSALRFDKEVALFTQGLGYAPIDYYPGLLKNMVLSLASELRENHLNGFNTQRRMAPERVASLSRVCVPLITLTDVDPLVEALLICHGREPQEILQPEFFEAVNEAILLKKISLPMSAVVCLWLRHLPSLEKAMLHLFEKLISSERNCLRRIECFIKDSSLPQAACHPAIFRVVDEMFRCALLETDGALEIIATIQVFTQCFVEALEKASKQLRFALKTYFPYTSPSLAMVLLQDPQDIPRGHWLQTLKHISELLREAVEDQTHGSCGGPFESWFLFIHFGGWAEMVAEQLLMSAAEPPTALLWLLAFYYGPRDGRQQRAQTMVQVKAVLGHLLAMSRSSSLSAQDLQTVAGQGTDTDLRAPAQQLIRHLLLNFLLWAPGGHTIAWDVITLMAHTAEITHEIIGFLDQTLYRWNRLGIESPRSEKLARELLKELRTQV

T2: FANCA (human, UniProt O15360 1-1455)
T2 sequence: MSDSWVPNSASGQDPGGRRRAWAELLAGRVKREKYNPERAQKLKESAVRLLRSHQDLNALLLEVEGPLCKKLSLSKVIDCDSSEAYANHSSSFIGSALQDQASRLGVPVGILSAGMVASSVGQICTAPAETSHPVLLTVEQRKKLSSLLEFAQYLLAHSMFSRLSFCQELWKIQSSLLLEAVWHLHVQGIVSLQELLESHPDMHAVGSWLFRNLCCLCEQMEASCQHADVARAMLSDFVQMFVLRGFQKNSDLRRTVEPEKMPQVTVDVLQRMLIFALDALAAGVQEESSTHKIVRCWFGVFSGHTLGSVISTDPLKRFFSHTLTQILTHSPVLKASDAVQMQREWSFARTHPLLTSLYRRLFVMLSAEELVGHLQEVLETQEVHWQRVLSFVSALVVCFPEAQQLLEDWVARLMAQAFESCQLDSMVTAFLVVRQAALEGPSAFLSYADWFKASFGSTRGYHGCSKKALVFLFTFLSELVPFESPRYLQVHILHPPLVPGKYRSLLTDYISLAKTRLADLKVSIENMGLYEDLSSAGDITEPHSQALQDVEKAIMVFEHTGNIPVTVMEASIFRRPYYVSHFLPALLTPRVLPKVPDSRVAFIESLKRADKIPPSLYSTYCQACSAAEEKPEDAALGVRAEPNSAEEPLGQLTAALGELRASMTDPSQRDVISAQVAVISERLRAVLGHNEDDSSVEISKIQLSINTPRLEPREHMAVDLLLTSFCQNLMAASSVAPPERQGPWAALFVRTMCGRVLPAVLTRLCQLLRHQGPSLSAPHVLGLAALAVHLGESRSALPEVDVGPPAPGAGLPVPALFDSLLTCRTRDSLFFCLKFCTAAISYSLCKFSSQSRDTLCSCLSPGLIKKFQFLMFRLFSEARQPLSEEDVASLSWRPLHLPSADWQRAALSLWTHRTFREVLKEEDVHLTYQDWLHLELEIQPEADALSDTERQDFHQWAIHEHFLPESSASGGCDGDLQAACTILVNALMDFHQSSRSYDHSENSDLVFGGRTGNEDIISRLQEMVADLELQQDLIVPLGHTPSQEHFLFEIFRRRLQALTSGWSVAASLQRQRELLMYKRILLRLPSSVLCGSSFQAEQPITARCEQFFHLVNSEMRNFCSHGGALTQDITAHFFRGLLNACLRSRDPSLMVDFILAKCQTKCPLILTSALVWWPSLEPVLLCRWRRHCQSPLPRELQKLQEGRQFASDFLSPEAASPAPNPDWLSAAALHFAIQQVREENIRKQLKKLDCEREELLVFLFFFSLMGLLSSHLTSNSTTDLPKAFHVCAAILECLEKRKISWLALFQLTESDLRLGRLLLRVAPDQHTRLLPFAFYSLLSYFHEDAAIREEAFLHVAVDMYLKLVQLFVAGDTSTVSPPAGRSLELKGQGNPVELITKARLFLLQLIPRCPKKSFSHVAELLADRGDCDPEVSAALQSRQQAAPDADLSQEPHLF

T3: FANCB (human, UniProt Q8NB91 1-859)
T3 sequence: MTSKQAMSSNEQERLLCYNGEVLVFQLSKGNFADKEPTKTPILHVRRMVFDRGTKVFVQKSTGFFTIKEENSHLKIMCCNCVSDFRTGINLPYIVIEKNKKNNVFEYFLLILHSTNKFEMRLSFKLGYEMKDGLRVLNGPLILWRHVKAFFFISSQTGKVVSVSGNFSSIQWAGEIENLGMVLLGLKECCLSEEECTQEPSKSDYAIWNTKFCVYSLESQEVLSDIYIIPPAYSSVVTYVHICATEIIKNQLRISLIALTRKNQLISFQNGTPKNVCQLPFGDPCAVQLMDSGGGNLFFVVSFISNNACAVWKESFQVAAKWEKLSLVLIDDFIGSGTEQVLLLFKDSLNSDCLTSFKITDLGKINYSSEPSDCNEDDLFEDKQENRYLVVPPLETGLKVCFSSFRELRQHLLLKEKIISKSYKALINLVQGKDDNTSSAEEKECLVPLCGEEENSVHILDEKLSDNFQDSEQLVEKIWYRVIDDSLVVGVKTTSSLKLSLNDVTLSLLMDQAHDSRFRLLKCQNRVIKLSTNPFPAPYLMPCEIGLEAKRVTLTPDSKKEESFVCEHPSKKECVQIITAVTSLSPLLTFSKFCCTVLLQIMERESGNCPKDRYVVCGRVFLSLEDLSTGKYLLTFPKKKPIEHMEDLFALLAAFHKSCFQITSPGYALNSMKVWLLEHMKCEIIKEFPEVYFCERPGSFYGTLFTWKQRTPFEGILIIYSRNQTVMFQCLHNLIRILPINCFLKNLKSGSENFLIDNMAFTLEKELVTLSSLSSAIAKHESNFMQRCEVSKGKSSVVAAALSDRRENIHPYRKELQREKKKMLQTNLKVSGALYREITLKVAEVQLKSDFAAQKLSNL

T4: FAAP100 (human, UniProt Q0VG06 1-881)
T4 sequence: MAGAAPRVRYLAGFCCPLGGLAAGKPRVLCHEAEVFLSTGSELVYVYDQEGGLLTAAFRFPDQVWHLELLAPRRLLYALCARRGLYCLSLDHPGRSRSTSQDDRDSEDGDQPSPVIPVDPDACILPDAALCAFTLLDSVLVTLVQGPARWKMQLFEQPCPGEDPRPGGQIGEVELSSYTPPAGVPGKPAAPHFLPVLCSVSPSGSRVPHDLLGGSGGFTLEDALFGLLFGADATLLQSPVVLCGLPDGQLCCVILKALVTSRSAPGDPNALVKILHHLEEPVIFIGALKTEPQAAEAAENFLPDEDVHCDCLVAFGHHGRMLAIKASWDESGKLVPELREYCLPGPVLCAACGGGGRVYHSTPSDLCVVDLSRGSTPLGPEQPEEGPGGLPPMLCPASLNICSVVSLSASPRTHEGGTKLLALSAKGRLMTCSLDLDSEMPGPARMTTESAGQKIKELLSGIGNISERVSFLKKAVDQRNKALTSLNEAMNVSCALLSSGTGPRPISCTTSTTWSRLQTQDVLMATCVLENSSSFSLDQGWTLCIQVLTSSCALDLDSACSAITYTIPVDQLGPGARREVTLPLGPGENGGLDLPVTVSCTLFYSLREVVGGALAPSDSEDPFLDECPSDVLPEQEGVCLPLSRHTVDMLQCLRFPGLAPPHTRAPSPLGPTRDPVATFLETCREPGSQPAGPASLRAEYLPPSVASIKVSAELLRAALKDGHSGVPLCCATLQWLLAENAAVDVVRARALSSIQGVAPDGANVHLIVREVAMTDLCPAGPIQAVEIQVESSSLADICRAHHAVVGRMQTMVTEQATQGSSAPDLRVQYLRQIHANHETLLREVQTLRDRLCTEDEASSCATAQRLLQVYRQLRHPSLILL

B1: FANCF (natural protein)
chain: MESLLQHLDRFSELLAVSSTTYVSTWDPATVRRALQWARYLRHIHRRFGRHGPIRTALERRLHNQWRQEGGFGRGPVPGLANFQALGHCDVLLSLRLLENRALGDAARYHLVQQLFPGPGVRDADEETLQESLARLARRRSAVHMLRFNGYRENPNLQEDSLMKTQAELLLERLQEVGKAEAERPARFLSSLWERLPQNNFLKVIAVALLQPPLSRRPQEELEPGIHKSPGEGSQVLVHWLLGNSEVFAAFCRALPAGLLTLVTSRHPALSPVYLGLLTDWGQRLHYDLQKGIWVGTESQDVPWEELHNRFQSLCQAPPPLKDKVLTALETCKAQDGDFEVPGLSIWTDLLLALRSGAFRKRQVLGLSAGLSSV
B2: FANCG (natural protein)
chain: MSRQTTSVGSSCLDLWREKNDRLVRQAKVAQNSGLTLRRQQLAQDALEGLRGLLHSLQGLPAAVPVLPLELTVTCNFIILRASLAQGFTEDQAQDIQRSLERVLETQEQQGPRLEQGLRELWDSVLRASCLLPELLSALHRLVGLQAALWLSADRLGDLALLLETLNGSQSGASKDLLLLLKTWSPPAEELDAPLTLQDAQGLKDVLLTAFAYRQGLQELITGNPDKALSSLHEAASGLCPRPVLVQVYTALGSCHRKMGNPQRALLYLVAALKEGSAWGPPLLEASRLYQQLGDTTAELESLELLVEALNVPCSSKAPQFLIEVELLLPPPDLASPLHCGTQSQTKHILASRCLQTGRAGDAAEHYLDLLALLLDSSEPRFSPPPSPPGPCMPEVFLEAAVALIQAGRAQDALTLCEELLSRTSSLLPKMSRLWEDARKGTKELPYCPLWVSATHLLQGQAWVQLGAQKVAISEFSRCLELLFRATPEEKEQGAAFNCEQGCKSDAALQQLRAAALISRGLEWVASGQDTKALQDFLLSVQMCPGNRDTYFHLLQTLKRLDRRDEATALWWRLEAQTKGSHEDALWSLPLYLESYLSWIRPSDRDAFLEEFRTSLPKSCDL

Assay in all cases: cryo-EM structure
For test [1], the target named is T1, FANCC.
Test [2] addresses B2.
For test [3], the target named is T2, FANCA.
Test [4] has as its target T3, FANCB.
Test [5] addresses T4, FAAP100.

B1: the binding result in test [1] and in test [2] was “binds” in each case.
Take B2: the binding result in test [3], in test [4] and in test [5] was “binds” in each case.
